These results are taken from patent publication US20220372154A1 (APEXIGEN, published 2022).

Experiment [1] has as its target T1, human TNFR2 expressed on cells (human, UniProt P20333 23-461).
T1 sequence (looked up): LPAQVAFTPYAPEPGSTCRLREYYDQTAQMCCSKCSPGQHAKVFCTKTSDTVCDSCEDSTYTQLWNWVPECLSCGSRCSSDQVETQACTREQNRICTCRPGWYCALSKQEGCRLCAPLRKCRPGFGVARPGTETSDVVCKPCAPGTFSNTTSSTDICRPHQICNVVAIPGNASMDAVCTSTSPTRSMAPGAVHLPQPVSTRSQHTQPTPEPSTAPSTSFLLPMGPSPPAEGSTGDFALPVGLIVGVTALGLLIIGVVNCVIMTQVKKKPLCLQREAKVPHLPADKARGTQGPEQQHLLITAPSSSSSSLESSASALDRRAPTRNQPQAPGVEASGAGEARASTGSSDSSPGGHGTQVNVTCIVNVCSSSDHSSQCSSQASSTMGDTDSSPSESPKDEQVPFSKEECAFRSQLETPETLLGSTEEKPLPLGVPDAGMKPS
Description: cell-based or functional assay.

Experiment [2] concerns the target T2, osteoprotegerin (OPG) (UniProt O00300 22-401, limits assumed).
T2 sequence (looked up): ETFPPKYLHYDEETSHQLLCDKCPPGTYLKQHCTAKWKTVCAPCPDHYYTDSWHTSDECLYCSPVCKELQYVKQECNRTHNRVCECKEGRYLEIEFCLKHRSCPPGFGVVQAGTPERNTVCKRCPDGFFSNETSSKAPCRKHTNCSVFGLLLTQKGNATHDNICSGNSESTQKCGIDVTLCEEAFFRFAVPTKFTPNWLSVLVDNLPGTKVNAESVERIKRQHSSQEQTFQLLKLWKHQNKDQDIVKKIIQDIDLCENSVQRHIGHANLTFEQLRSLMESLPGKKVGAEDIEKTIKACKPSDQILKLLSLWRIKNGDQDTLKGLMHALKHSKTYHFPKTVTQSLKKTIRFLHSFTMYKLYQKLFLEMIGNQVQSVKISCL
Kind of experiment: ELISA on coated OPG, OD 650 nm. As for the experimental part: (§1) To test binding to TNFR family members, target proteins were coated on ELISA plates at 1 μg/mL at 4° C. overnight. Plates were washed, blocked, and antibodies were added at indicated concentrations for 1 hour at RT. Positive control antibodies for each protein were used at ˜1 ug/mL. Antibodies were washed and detected with anti-human IgG HRP for 1 hour. Assay was developed using TMB substrate for 10 minutes. For cell-binding, human CD4+ T cells purified from buffy coats were cultured in flat-bottom plates with anti-CD3/CD28 for 24 hours. Cells were harvested and stained for viability, CD4, CD25 and FOXP3. Test antibody staining was detected using anti-human IgG APC. Binding titration of test antibodies was evaluated on CD4+CD25hiFOXP3+ regulatory T cells and plotted as percent binding.

In experiment [3] the target is T1, human TNFR2 expressed on cells. Description: flow cytometry, cell-expressed human TNFR2. (In flow cytometry, cells or beads pass a laser one at a time.)
For experiment [4] the target is unchanged. Kind of experiment: Primary Cell Affinity; binding titration on activated human Tregs, flow cytometry. As for the experimental part: as §1
Experiment [5] shares this target. Kind of experiment: blocking of biotinylated TNF-α on TNFR2-CHO cells, flow cytometry. As for the experimental part:
TNFR2-overexpressing CHO cells were plated at 100,000 cells per well. Cells were incubated with the indicated antibodies for 30 minutes on ice. […] Cells were analyzed using Cytoflex or MACSQuant flow cytometer. Assay was repeated twice.

For experiment [6], the target named is CD40 (UniProt P25942 21-193, limits assumed). Kind of experiment: ELISA on coated CD40, OD 650 nm. As for the experimental part:
as §1
For orientation: An ELISA detects its analyte on a solid surface through an enzyme-linked reagent.

The target in experiment [7] is T3, TNFR-Fc (UniProt P20333 23-257, limits assumed).
T3 construct: Printed only as TNFR-Fc; not shown: Fc part
T3 sequence (looked up): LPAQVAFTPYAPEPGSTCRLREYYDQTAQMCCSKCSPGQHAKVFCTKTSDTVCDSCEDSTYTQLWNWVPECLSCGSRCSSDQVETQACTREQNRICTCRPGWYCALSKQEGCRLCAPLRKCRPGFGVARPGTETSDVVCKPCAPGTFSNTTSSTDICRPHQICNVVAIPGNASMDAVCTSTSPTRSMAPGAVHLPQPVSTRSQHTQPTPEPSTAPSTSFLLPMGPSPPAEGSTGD
Description: TNF-α blocking ELISA (soluble).

Chain of CD40 (P25942 21-193 limits assumed): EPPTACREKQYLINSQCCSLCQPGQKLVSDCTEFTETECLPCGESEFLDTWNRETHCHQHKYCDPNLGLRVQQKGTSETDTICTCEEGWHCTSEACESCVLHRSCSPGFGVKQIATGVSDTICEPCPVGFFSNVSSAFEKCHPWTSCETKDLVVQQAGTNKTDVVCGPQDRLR

B1: humanized antibody h600-25-71 (antibody, V domains shown)
VH: EVQLVESGGGLVQPGGSLRLSCAASGIDLSSYAMGWVRQAPGKGLEWVGDISTSGNAYYATWVKGRFTISRDNSKNTLYLQMNSLRAEDTAVYYCARADYGGETYAFDPWGQGTLVTVSS
VL: DIQMTQSPSSLSASVGDRVTITCQASQSISSYLNWYQQKPGKAPKLLIYSASTLASGVPSRFSGSGSGTDFTLTISSLQPEDFATYYCQQGYSDSNIDNVFGGGTKVEIK
notes: also called Ab 25-71; clone 25-71
B1: the “ADCC EC50 (reporter line)” value in experiment [1] was 1.14 nM. Besides, the “ADCP EC50” value in experiment [1] stood at 0.71 nM. Also, the binding result in experiment [2] and in experiment [6] was “no binding (tested: about 67 nM)” in each case. Also, in experiment [3], the response was half-maximal at 0.242 nM (EC50). Further, the equilibrium dissociation constant (Kd) in experiment [4] came out at 0.047 nM. The half-maximal inhibitory concentration (IC50) stood at 0.149 nM in experiment [5] and 1.96 nM in experiment [7].

The EC50 is the concentration at which the effect is half-maximal. For orientation: Kd means the concentration at which binding is half-saturated. The low end stands for tighter binding, the high end for weaker binding. The term IC50 denotes the midpoint of a concentration-inhibition curve. The low end stands for greater potency, the high end for weaker potency.
